Data from patent US20140128569A1 (PANASONIC, published 2014).

Biological target: T1, polypeptide consisting of the amino acid sequence represented by SEQ ID NO: 01, contained in troponin I … (human)
T1 peptide: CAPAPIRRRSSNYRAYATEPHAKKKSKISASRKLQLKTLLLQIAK
Assay: phage ELISA; average absorbance relative to example 2-1 (no heat); told of the conditions <=70 C and <=5 min, <=60 C and <=10 min, <=50 C and <=20 min, <=37 C and <=60 min
Experimental: Pursuant to the step (a-8), the ELISA plate was prepared.
A phage binding ratio was calculated from Table 10 on the basis of the following formula (I): […]

B1: A2 antibody-displayed phage (scFv)
scFv: DVVLTQSPLTLSVTIGQPASISCKSSQSLLDSDGKTYLNWLLQRPGQSPKRLIYLVSKLDSGVPDRFTGSGSGTDFTLKISRVEAEDLGVYYCWQGTHFPLTFGAGTKLEIKRGGGGSGGGGSGGGGSQLQLQQSGAELVRSGASVKLSCTASGFNIKDYYMNWVKQRPEQGLEWIGWIDPANGDTAYAPRFQVKATMTADKSSNTAYLQLSSLTSEDTAVYYCNADLPMDQWGQGTSVTVSS
notes: 67, 68, 69 its parts; they must be translated; also called A2 antibody fragment; A2 scFv antibody fragment
phage binding ratio: 40%
